The nature of this series: amyloid nucleation score (Sup35N fusion, yeast selection) (log enrichment); library NNK1; higher = more nucleation; inactive = no reads after selection. Put shortly: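 Nucleation score: DiMSum log enrichment of output over input reads, centred on the mode score of non-aggregating sequences. Only sequences with at least 100 input reads were kept. Reads came from Illumina sequencing of plasmid inserts before and after 7 days of growth at 30°C without adenine and uracil, in psi-negative yeast expressing Sup35N fused to peptides of 20 random codons after 24 hours of induction with 100 μM copper sulfate.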

In the supplement of paper PMC12042874 one finds amyloid nucleation score data, which are given here for 141 substances.

± gives the uncertainty stated by the source.

With NLSQSLVHRVSSVEYTLRLL, the amyloid nucleation score entry was “inactive”.

On to SNDVIVWYPIDEGHAGCAYL, for which the amyloid nucleation score was 1.75 ± 0.66.

DSSLCFGSYLWLVAMSLK returned an amyloid nucleation score of -0.489 ± 0.75.

TDEGLVCHK registered an amyloid nucleation score of 0.522 ± 0.75.

Regarding IHRLSARCRLNI, the amyloid nucleation score stood at 0.657 ± 0.42.

As to LSLSYHMLSYI, the amyloid nucleation score entry was “inactive”.

Substance NKSCDGVRLCREARKALEPC gave an amyloid nucleation score of 0.34 ± 0.52.

Substance YAALVHTHLKDYEISIYVIN returned an amyloid nucleation score of 0.988 ± 0.43.

Consider SSNFSPLTIVVYNFCI, for which the amyloid nucleation score amounted to 7.744 ± 0.051.

Regarding AWNTGSIARHSFSRIVSTCD, the amyloid nucleation score amounted to 0.182 ± 0.39.

Substance NNACMSSYVVGYRSIVMVK came in with an amyloid nucleation score of 0.558 ± 1.1.

Take SGNKGRLSLLYYILFMPWLA: the amyloid nucleation score was -0.412 ± 1.

The substance DWVVSCAYGFSSARNGGVCL yielded an amyloid nucleation score of -0.039 ± 0.39.

In turn, DIGAVIAWSNRLVWLQPTLL gave an amyloid nucleation score of -0.506 ± 0.84.

Regarding TYRLH, the amyloid nucleation score is -0.57 ± 0.55.

For the substance SNLLGSMFLLCHQIKHRPEI, the amyloid nucleation score was -0.764 ± 0.34.

Substance SRPDTQPEEAQ gave an amyloid nucleation score of -0.02 ± 0.21.

In the case of DDPLNVTHKVRN, the amyloid nucleation score came to 5.31 ± 0.069.

Consider CLQDMFFTNELSFAGTLLIS, for which the amyloid nucleation score amounted to 0.049 ± 0.34.

With WMKVLVPFRMEAASGSLFCS, the amyloid nucleation score is -1.22 ± 1.3.

Take QNFDHTIHRISVVVPGA: the amyloid nucleation score was -0.099 ± 1.6.

In the case of AVRWLHIGWSKETGRNCDCR, the amyloid nucleation score was 0.671 ± 0.64.

Turning to LLLIFNEELW, the amyloid nucleation score was -0.28 ± 0.43.

With VFNTGYRVSRILDLGYKFNM, the amyloid nucleation score entry is “inactive”.

Substance FLSRGSVWVVGSTFECHYEW registered an amyloid nucleation score of 0.205 ± 0.56.

RSVYSDLSQTYRLQDFFETM yielded an amyloid nucleation score of -1.69 ± 2.4.

TVKHC had an amyloid nucleation score of 3.17 ± 0.14.

For the substance RKRNKYILYYRCNRWFQLYC, the amyloid nucleation score is -0.323 ± 1.6.

Substance SCQATLLFLSYSSNVGLIST came in with an amyloid nucleation score of -0.267 ± 1.1.

In the case of GAFRVVSQHRASDVS, the amyloid nucleation score was -0.116 ± 0.41.

Turning to IGYCRGHAYKMRYFSVRWFV, the amyloid nucleation score was -1.25 ± 1.7.

Substance FSGLDYNVYVNLVPYFLCIN showed an amyloid nucleation score of 6.34 ± 0.077.

For the substance EWTSAWW, the amyloid nucleation score was -0.355 ± 0.36.

In turn, CCYDPNGLAKNKTW showed an amyloid nucleation score of -0.013 ± 0.65.

On to CVHAHTTHITSCRARPSTEA, for which the amyloid nucleation score is 0.435 ± 0.28.

In the case of TRQRKDGYADRMQYNSPLRR, the amyloid nucleation score amounted to 0.342 ± 0.6.

Regarding VSFGIFMNESYV, the amyloid nucleation score came out at 1.52 ± 0.098.

The substance RSSSYNSLIRKISDKLVGAA registered an amyloid nucleation score of 1.09 ± 0.56.

Substance NADCAYYDERYRYSSWLYFY came in with an amyloid nucleation score of -1.2 ± 1.1.

Substance DASSKIRPSIGRMQKHWY showed an amyloid nucleation score of -0.513 ± 0.85.

For the substance LSTTWDFESMGVRVSREYPG, the amyloid nucleation score is 0.351 ± 0.58.

The substance SRLVCLVNYVGGGYIETITL showed an amyloid nucleation score of 4.02 ± 0.1.

As to RSYSNPLSSVSLSNYSFGVY, the amyloid nucleation score is -0.353 ± 0.36.

For WHASNFLTSSSHKMSSNWTS, the amyloid nucleation score was found to be 0.67 ± 0.48.

With DCQNYLSFVN, the amyloid nucleation score is -1.29 ± 2.4.

Take TFNVVNPMVTYN: the amyloid nucleation score was -0.776 ± 0.3.

In turn, VSTSHCTSFVFNIYCKYDSR displayed an amyloid nucleation score of 8.542 ± 0.052.

In turn, GKNFYREDAVSVCRWL showed an amyloid nucleation score of 0.342 ± 0.64.

Turning to CVAWVSSNPRVGGDIRTWTE, the amyloid nucleation score was 0.021 ± 0.48.

As for CPGLFVGLCPMAHMVACCHR, the amyloid nucleation score entry is “inactive”.

For the substance TEELYTGVTFL, the amyloid nucleation score was -1.93 ± 1.5.

With HLWFE, the amyloid nucleation score is -0.146 ± 0.43.

EMSIILGIERRNHCVPAMVS came in with an amyloid nucleation score of -0.552 ± 1.9.

The substance MYFCM showed an amyloid nucleation score of 6.7 ± 0.059.

For the substance LFVRKVIYVDR, the amyloid nucleation score was determined as 0.379 ± 0.33.

Substance MLISSILTYIKVSGYCPGCT had an amyloid nucleation score of 0.347 ± 0.52.

As for ISFSSYYNLVLDYLELSQCL, the amyloid nucleation score entry is “inactive”.

VFYVCFNAKLPLLGYFDLKV: the amyloid nucleation score result is “inactive”.

As for VYGSIKSVEANTVWML, the amyloid nucleation score turned out to be 3.32 ± 0.16.

On to RNYFCIMYRYRCCKV, for which the amyloid nucleation score turned out to be 4.23 ± 0.085.

As to SFLNINPRQFSWIYCPLVVY, the amyloid nucleation score was found to be 2.94 ± 0.23.

For the substance SYHVMNKDYMVYFKNTYKDK, the amyloid nucleation score turned out to be 4.68 ± 0.078.

In turn, LSLNSHYCDDCVWLFR displayed an amyloid nucleation score of 1.02 ± 0.45.

As for GTDRSLAVIFKARCWFWATR, the amyloid nucleation score was -1.14 ± 1.7.

On to CGNAWVKAIMW, for which the amyloid nucleation score is -0.191 ± 0.66.

Regarding YCCYLMCYSRRILDGP, the amyloid nucleation score was determined as 0.174 ± 0.43.

As for KACFPLI, the amyloid nucleation score worked out at 0.631 ± 0.45.

In the case of PSTPQSHKMMGYRFRDRTGW, the amyloid nucleation score is -1.03 ± 2.7.

The substance LALVFLLMFVHQSDDYKLRN had an amyloid nucleation score of 2.89 ± 0.17.

With DAVQLMSCCMTISGPTKNRA, the amyloid nucleation score was determined as 0.184 ± 0.56.

On to FWHPLG, for which the amyloid nucleation score was -0.342 ± 0.28.

Substance CNMVLFRVKYY returned an amyloid nucleation score of 2.67 ± 0.1.

Turning to HLINVQ, the amyloid nucleation score came to 0.632 ± 0.53.

With GVDRVRQCRARALDFSIGS, the amyloid nucleation score was -0.372 ± 0.62.

In the case of KSDVAARVCDER, the amyloid nucleation score came out at 0.526 ± 0.31.

The substance TYFFKLNP displayed an amyloid nucleation score of -1.07 ± 1.4.

As for VFFYSRT, the amyloid nucleation score was found to be 3.02 ± 0.08.

For the substance LGYVYSKSTSSTQSLFICSG, the amyloid nucleation score is -0.287 ± 0.26.

For LLFKNRISPITTI, the amyloid nucleation score worked out at 0.174 ± 0.47.

In turn, CGWRQKLVMVETVTGFSLWG displayed an amyloid nucleation score of 1.41 ± 0.88.

HYHFDTACVWCDYSVHGNKD gave an amyloid nucleation score of 7.38 ± 0.057.

SSIESSYGKFLRGIVSESIK gave an amyloid nucleation score of 0.485 ± 0.55.

In turn, KFFHLAIMWFTPSSPHKGTC came in with an amyloid nucleation score of -0.496 ± 0.62.

NLGAMWLNVVPVYLKWVAL: the amyloid nucleation score was -0.095 ± 0.32.

For TVNRMIFFMRLLYTRVKL, the amyloid nucleation score was -1.68 ± 2.7.

Consider SSSSML, for which the amyloid nucleation score is -0.202 ± 0.47.

QLFVRFGRSARLVIAESQKA had an amyloid nucleation score of -0.077 ± 0.33.

On to ERPTWVGGDGSSGLVVGSDL, for which the amyloid nucleation score was -0.22 ± 0.81.

As to MSSIKQY, the amyloid nucleation score was -1.07 ± 2.4.

The substance EWVLFDAHAGRLVVPEH showed an amyloid nucleation score of -0.995 ± 1.

TRNFKQK showed an amyloid nucleation score of -1.78 ± 1.8.

The substance IVWYELIESNVLKSKGCVVN came in with an amyloid nucleation score of -0.322 ± 1.1.

LPNRCASIVRQIVQVWCVS displayed an amyloid nucleation score of 2.41 ± 0.12.

Take MSVMLIS: the amyloid nucleation score was 0.126 ± 0.44.

In the case of AQWVLMWYVRHVR, the amyloid nucleation score is 1.49 ± 0.18.

Substance FKRFLSLVCV registered an amyloid nucleation score of 0.1 ± 0.53.

In the case of VFFLGMVCAVWATFDVSYNG, the amyloid nucleation score was determined as 1.31 ± 0.35.

In the case of MGVVQCAKRQQRLLMQLTVL, the amyloid nucleation score is 0.054 ± 0.93.

As to DGDVE, the amyloid nucleation score is -0.494 ± 0.74.

FEDEPGVSFWNSGGFK showed an amyloid nucleation score of -1.07 ± 0.62.

The substance NGFSYVCFNGFQLMCLDSIM registered an amyloid nucleation score of 7.779 ± 0.044.

Turning to HNLYMWVFCCCQYRMNFSWS, the amyloid nucleation score worked out at 3.49 ± 0.11.

Regarding IIFVEWNSGRAC, the amyloid nucleation score is -0.526 ± 0.51.

Consider RYFLEMISRYISRN, for which the amyloid nucleation score entry is “inactive”.

RFEKTWHWSAIAGRQGGGIF showed an amyloid nucleation score of -0.697 ± 0.88.

MFCFKGHQSRDLRTFDYIW: the amyloid nucleation score amounted to 0.1 ± 0.27.

As for QGINLVY, the amyloid nucleation score is -0.342 ± 0.38.

FRSNGQNLVTAISSMDVRAN: the amyloid nucleation score was -2.14 ± 2.7.

For the substance WNIRGVMGLSNVR, the amyloid nucleation score is -0.058 ± 0.29.

Substance SNCERAIAKSHLVARPFSVS gave an amyloid nucleation score of 0.16 ± 0.73.

Turning to RCASALVSGVTSVSLRTVQD, the amyloid nucleation score turned out to be 0.83 ± 0.73.

Turning to HIIQNLV, the amyloid nucleation score worked out at 0.25 ± 0.77.

Turning to EPCCDVRVKGLYMFEYYVVC, the amyloid nucleation score was 0.185 ± 1.1.

Consider IFYFELPKFCKIKDISSKWV, for which the amyloid nucleation score entry is “inactive”.

FRGYHSSMSGNGDDNEKFGG yielded an amyloid nucleation score of 0.24 ± 0.71.

As to QNLYVLDSYSLLNNFVSCII, the amyloid nucleation score was -0.623 ± 0.35.

YSWTVAKIFTYFSVQLSIFR came in with an amyloid nucleation score of -0.396 ± 0.33.

For TNPLDPLLCNVYQVLDMPCM, the amyloid nucleation score came to 0.497 ± 0.58.

With KFIDFERLFSLRGWSVCNER, the amyloid nucleation score worked out at 0.889 ± 0.24.

As to LIHVRCSLVQCANSELQGAG, the amyloid nucleation score stood at 2.65 ± 0.28.

Substance YCRFWVDFFVFESILDSPPN returned an amyloid nucleation score of 0.093 ± 0.32.

With YNVVSSKNNTVRFVLFP, the amyloid nucleation score stood at 4.31 ± 0.12.

Consider YDEGWANT, for which the amyloid nucleation score was 0.048 ± 1.5.

CDMNPSDYDPLCEVSHRIIS returned an amyloid nucleation score of 0.561 ± 0.24.

In the case of FFAGSQIFIHRSLEWI, the amyloid nucleation score was found to be 1.68 ± 0.17.

Regarding YLCGHLMNTLYAILNVRRAL, the amyloid nucleation score is 0.888 ± 0.9.

Consider HSCYLANCLSRVQGSKRDTE, for which the amyloid nucleation score was -0.911 ± 0.54.

SPRAWRMGHGLVGWVMEKKG returned an amyloid nucleation score of 0.476 ± 1.1.

Take RLFITCRAL: the amyloid nucleation score turned out to be 2.52 ± 0.18.

The substance VVLTYSWGAYRY yielded an amyloid nucleation score of 1.26 ± 0.23.

As to KRIDDYAKFRC, the amyloid nucleation score result was “inactive”.

On to GAKFSTVSRENDDMHFAWLW, for which the amyloid nucleation score is 1.19 ± 0.97.

Turning to TLSTVTG, the amyloid nucleation score was determined as 0.357 ± 0.37.

SCSPGTYSWFNWWYKSPGVE gave an amyloid nucleation score of -0.021 ± 0.65.

For VYGMITIDNRQVRVVLGFRS, the amyloid nucleation score is -0.549 ± 0.71.

On to ILVLYSVRWIEATR, for which the amyloid nucleation score was -0.224 ± 0.35.

In the case of RRMVTCLQLIVRNLRSCACC, the amyloid nucleation score entry was “inactive”.

IRLRPERDLGVAWLCIGCKR returned an amyloid nucleation score of -0.314 ± 1.2.

HTEYRKYRVCTFLK yielded an amyloid nucleation score of 0.826 ± 0.4.

NCNIMNFIDTCLCGAMYYFR came in with an amyloid nucleation score of 4.12 ± 0.078.

Take NPGRLRFTGTMRRTQKIEVA: the amyloid nucleation score is -0.876 ± 0.49.
